The values below come from PMC8867384 (Neuron, 2020).

Test in all cases: cryo-EM structure
Test [1] addresses native Torpedo nicotinic acetylcholine receptor (Tetronarce californica (formerly Torpedo californica)) (UniProt P02710).
In test [2] the target is Torpedo nicotinic acetylcholine receptor α subunit (Tetronarce californica (formerly …, UniProt P02710 25-461)).
The target in test [3] is T1, Torpedo nicotinic acetylcholine receptor γ subunit (Tetronarce californica (formerly …, UniProt P02714 18-506)).
T1 sequence (looked up): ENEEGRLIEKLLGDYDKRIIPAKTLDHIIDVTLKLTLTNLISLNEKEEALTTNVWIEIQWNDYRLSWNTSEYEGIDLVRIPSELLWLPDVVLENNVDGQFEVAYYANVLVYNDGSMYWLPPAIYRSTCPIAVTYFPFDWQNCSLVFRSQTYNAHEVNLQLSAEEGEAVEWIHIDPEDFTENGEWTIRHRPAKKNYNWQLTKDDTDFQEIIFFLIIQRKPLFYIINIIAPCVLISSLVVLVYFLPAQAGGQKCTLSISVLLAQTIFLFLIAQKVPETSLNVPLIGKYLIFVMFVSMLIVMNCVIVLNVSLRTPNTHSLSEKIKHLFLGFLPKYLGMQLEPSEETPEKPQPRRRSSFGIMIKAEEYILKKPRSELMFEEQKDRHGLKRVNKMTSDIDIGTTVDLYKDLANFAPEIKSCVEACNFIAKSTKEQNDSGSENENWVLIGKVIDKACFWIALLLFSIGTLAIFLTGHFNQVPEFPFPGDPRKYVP

The target in test [4] is T2, Torpedo nicotinic acetylcholine receptor δ subunit (Tetronarce californica (formerly …, UniProt P02718 22-522, glycosylated (site not given))).
T2 sequence (looked up): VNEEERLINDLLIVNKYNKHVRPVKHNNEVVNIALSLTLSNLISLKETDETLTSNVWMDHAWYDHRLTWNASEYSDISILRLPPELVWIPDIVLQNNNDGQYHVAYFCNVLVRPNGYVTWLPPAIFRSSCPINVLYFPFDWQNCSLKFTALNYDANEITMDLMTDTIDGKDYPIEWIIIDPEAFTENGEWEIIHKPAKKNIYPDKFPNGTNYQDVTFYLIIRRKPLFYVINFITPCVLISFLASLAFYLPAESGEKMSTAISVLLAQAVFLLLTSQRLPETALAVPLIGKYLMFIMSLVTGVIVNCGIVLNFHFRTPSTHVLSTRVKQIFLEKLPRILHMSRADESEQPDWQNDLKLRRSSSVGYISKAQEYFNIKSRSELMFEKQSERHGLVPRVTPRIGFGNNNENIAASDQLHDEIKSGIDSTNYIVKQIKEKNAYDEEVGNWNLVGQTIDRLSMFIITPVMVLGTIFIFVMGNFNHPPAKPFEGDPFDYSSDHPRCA

The term stoichiometry N denotes a count of units in the complex or per binding partner.

native Torpedo nicotinic acetylcholine receptor (Tetronarce californica (formerly Torpedo californica)), sequence (P02710 25-461, chain 1 of 2): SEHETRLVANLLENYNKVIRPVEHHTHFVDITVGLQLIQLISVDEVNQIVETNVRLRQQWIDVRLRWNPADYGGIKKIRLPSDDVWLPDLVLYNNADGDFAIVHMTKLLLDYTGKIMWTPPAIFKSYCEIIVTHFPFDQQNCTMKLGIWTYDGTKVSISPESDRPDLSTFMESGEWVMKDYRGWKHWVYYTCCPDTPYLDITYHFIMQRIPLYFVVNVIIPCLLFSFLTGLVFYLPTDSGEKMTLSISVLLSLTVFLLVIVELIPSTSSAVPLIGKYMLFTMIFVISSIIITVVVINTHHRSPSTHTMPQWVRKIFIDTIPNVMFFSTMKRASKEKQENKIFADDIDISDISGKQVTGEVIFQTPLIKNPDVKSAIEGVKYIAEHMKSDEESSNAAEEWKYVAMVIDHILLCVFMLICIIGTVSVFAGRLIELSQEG
native Torpedo nicotinic acetylcholine receptor (Tetronarce californica (formerly Torpedo californica)), sequence (P02712 25-493, chain 2 of 2, further chain): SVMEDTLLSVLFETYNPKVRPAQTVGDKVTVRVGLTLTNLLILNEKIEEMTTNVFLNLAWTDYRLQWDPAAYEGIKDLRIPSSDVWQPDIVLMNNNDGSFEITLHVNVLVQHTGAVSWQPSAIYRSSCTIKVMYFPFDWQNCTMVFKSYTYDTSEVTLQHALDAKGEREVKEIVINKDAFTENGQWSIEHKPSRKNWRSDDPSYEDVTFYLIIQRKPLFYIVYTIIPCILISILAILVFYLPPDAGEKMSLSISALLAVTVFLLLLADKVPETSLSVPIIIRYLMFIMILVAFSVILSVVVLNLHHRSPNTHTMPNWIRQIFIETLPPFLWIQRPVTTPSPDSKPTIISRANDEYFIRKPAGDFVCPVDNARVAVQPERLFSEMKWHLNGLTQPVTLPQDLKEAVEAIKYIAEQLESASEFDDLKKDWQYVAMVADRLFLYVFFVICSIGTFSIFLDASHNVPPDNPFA
Torpedo nicotinic acetylcholine receptor α subunit (Tetronarce californica, sequence (P02710 25-461): as the sequence (P02710 25-461, chain 1 of 2) above

Regarding “α-bungarotoxin (from UniProt P60615 22-95) (natural protein)”, the stoichiometry N in test [1] came out at 2.

B1: α-bungarotoxin (natural protein)
chain: IVCHTTATSPISAVTCPPGENLCYRKMWCDAFCSSRGKVVELGCAATCPSKKPYEEVTCCSTDKCNPHPKQRPG
Regarding B1, the binding result in test [2], in test [3] and in test [4] was “binds” each time.
